From patent publication US20210038737A1 (OHIO STATE INNOVATION FOUNDATION, published 2021)
Values belong to the binder of their own block, whether it stands above or below them. Primed or numbered codes have the meaning given here. [ ]: non-standard residue; d: D form. 1Nal = N[C@@H](Cc1cccc2ccccc12)C(=O)O; 2Nal = N[C@@H](Cc1ccc2ccccc2c1)C(=O)O; FITC′ = fluorescein isothiocyanate; Cha = N[C@@H](CC1CCCCC1)C(=O)O; Tle = CC(C)(C)[C@H](N)C(=O)O

Legend:
[1] = target: T1, CAL PDZ domain (CALP5-His) (UniProt Q9HD26 288-371); test: FP competition, condition A: probe peptide 26 (50 nM) with 100 nM CALP5-His; competitor titrated
[2] = target: T1, CAL PDZ domain (CALP5-His); test: FP competition, condition B: probe FAM-…-OH (100 nM) with 500 nM CALP5-His; competitor titrated
Method: Serial dilutions of each competitor peptide were prepared in PBS and the incubation solution was added to each. The combined solutions were gently mixed for 1 h at RT after which 20 uL sample was pipetted into 384-well black-on-black microplates and fluorescence polarization was measured using a TECAN Infinite M1000 plate reader. Data was processed to determine IC₅₀ using GraphPad PRISM ver. 6.0.

[3] = target: T1, CAL PDZ domain (CALP5-His); test: direct FP, condition C: 50 nM labeled peptide, CALP5-His titrated
Method: Condition C (denoted with superscript ^c): 50 nM labeled peptide was incubated with 2 mM TCEP in PBS at pH 7.4 containing 0.01% Triton-X100. CALP5-His was serially diluted in PBS containing 0.01% Triton-X100 to which was then added the peptide and TCEP solution. This solution was mixed for 1 h at RT then 20 uL was pipetted into 384-well microplates and fluorescence polarization was measured using a TECAN Infinite M1000 plate reader. KD values were calculated using KaleidaGraph v. 3.6 using the equation: […]

IC50 [1]: 7.88 µM
B1: peptide 3: Ac-Arg-Arg-Phe-Trp-Gln-Cys-Thr-Arg-Cha-OH (peptide)
peptide: Ac-RRFWQCTR[Cha]-OH
SMILES: CC(=O)N[C@@H](CCCNC(=N)N)C(=O)N[C@@H](CCCNC(=N)N)C(=O)N[C@@H](Cc1ccccc1)C(=O)N[C@@H](Cc1c[nH]c2ccccc12)C(=O)N[C@@H](CCC(N)=O)C(=O)N[C@@H](CS)C(=O)N[C@H](C(=O)N[C@@H](CCCNC(=N)N)C(=O)N[C@@H](CC1CCCCC1)C(=O)O)[C@@H](C)O
notes: Synthetic peptide; also called Compd 3; Compound 3

IC50 [1]: 2.02 µM
B2: peptide 7: Ac-Arg-Arg-Phe-Trp-Gln-Cys-Thr-Leu-Tle-OH (peptide)
peptide: Ac-RRFWQCTL[Tle]-OH
modifications: not fully specified; printed as Ac-Arg-Arg-Phe-Trp-Gln-Cys-Thr-Leu-Tle-OH
notes: Synthetic peptide; also called Compd 7; Compound 7

IC50 [1]: 8.01 µM
B3: peptide 13: Ac-Arg-Arg-Phe-Trp-Cys-Cys-Thr-Arg-Tle-OH (peptide)
peptide: Ac-RRFWCCTR[Tle]-OH
modifications: cysteine pairing not given here
notes: Synthetic peptide; also called Compd 13; Compound 13

IC50 [2]: 1.49 µM
B4: peptide 15: Ac-Cys-Arg-Arg-Arg-Phe-(2-Nal)-Gln-Cys-Thr-Arg-Tle-OH (peptide)
peptide: Ac-CRRRF[2Nal]QCTR[Tle]-OH
modifications: cysteine pairing not given here
notes: Synthetic peptide; assayed with DTT (reduced, linear); also called Compd 15; Compound 15

Kd [3]: 0.996 µM
B5: peptide 6: FITC-Cys-Arg-Arg-Arg-Phe-Trp-Gln-Cys-Thr-Arg-Tle-OH (peptide)
peptide: {FITC′}-CRRRFWQCTR[Tle]-OH
modifications: not fully specified; printed as FITC-Cys-Arg-Arg-Arg-Phe-Trp-Gln-Cys-Thr-Arg-Tle-OH; cysteine pairing not given here
notes: Synthetic labeled peptide; assayed with 2 mM TCEP (reduced, linear); also called Compd 6; Compound 6

IC50 [1]: 10.3 µM
B6: peptide 12: Ac-Arg-Arg-Phe-Trp-(D-Cys)-Cys-Thr-Arg-Tle-OH (peptide)
peptide: Ac-RRFW[dC]CTR[Tle]-OH
modifications: cysteine pairing not given here
notes: Synthetic peptide; also called Compd 12; Compound 12

IC50 [2]: 1.77 µM
B7: peptide 14: Ac-Cys-Arg-Arg-Arg-Phe-(1-Nal)-Gln-Cys-Thr-Arg-Tle-OH (peptide)
peptide: Ac-CRRRF[1Nal]QCTR[Tle]-OH
modifications: cysteine pairing not given here
notes: Synthetic peptide; assayed with DTT (reduced, linear); also called Compd 14; Compound 14

IC50 [1]: 7.39 µM
B8: peptide 11: Ac-Arg-Arg-Phe-Trp-(D-Pro)-Cys-Thr-Arg-Tle-OH (peptide)
peptide: Ac-RRFW[dP]CTR[Tle]-OH
SMILES: CC(=O)N[C@@H](CCCNC(=N)N)C(=O)N[C@@H](CCCNC(=N)N)C(=O)N[C@@H](Cc1ccccc1)C(=O)N[C@@H](Cc1c[nH]c2ccccc12)C(=O)N1CCC[C@@H]1C(=O)N[C@@H](CS)C(=O)N[C@H](C(=O)N[C@@H](CCCNC(=N)N)C(=O)N[C@H](C(=O)O)C(C)(C)C)[C@@H](C)O
notes: Synthetic peptide; also called Compd 11; Compound 11

IC50 [1]: 3.69 µM
B9: peptide 2: Ac-Arg-Arg-Phe-Trp-Gln-Cys-Thr-Arg-Ile-OH (peptide)
peptide: Ac-RRFWQCTRI-OH
notes: Synthetic peptide; also called Compd 2; Compound 2
